From article PMC9352680, “A comprehensive thermodynamic model for RNA binding by the Saccharomyces cerevisiae Pumilio protein PUF4”

B1: Ib_S1_P5E.1_K5.1_C5.1_H5.1_[G2A]_A5.1_F5.1_[T8C]_T5.1 (ssRNA)
RNA: UCUCUUUAUAUUACUAUCUCUU
B2: Ib_S1_P5E.1_K5.1_C5.1_H5.1_[G2T]_A5.1_F5.1_[T8G]_T5.1 (ssRNA)
RNA: UCUCUUUUUAUUAGUAUCUCUU
B3: Ia_S1_P5E.1_K5.1_C5.1_H5.1_A5.1_F5.1_[T9A]_T5.1 (ssRNA)
RNA: UCUCUUUGUAUUAUAAUCUCUU
B4: Ib_S1_P5E.1_K5.1_C5.1_H5.1_[T1A]_A5.1_F5.1_[T8G]_T5.1 (ssRNA)
RNA: UCUCUUAGUAUUAGUAUCUCUU
B5: Id_ii_S2_P3E.2_K3.1_C3.2_[C-2G]_H3.1_A3.1_F3.1_T3.2_[A10T] (ssRNA)
RNA: UUUGAUUAAUAUGAUAUCGUUCUUUCUGUUGUAUAUAUUUUCUUUCUCGAUAUCAUAUUAAUCUUU
B6: Id_ii_S2_P3E.2_K3.1_C3.2_[C-2T]_[T-1C]_H3.1_A3.1_F3.1_T3.2_[T9C]_[A10T] (ssRNA)
RNA: UUUGAUUAAUAUGAUAUCGUUCUUUCUUCUGUAUAUACUUUCUUUCUCGAUAUCAUAUUAAUCUUU
B7: Id_ii_S2_P3E.2_K3.1_C3.2_[C-2A]_[T-1G]_H3.1_A3.1_F3.1_T3.2_[T9A]_[A10G] (ssRNA)
RNA: UUUGAUUAAUAUGAUAUCGUUCUUUCUAGUGUAUAUAAGUUCUUUCUCGAUAUCAUAUUAAUCUUU
B8: Id_ii_S2_P3E.2_K3.1_C3.2_[C-2T]_H3.1_A3.1_F3.1_T3.2_[T9A] (ssRNA)
RNA: UUUGAUUAAUAUGAUAUCGUUCUUUCUUUUGUAUAUAAAUUCUUUCUCGAUAUCAUAUUAAUCUUU
B9: Id_ii_S2_P3E.2_K3.1_C3.2_[C-2T]_H3.1_A3.1_F3.1_T3.2_[T9C]_[A10T] (ssRNA)
RNA: UUUGAUUAAUAUGAUAUCGUUCUUUCUUUUGUAUAUACUUUCUUUCUCGAUAUCAUAUUAAUCUUU
B10: Id_ii_S2_P3E.2_K3.1_C3.2_[C-2T]_[T-1A]_H3.1_A3.1_F3.1_T3.2_[A10C] (ssRNA)
RNA: UUUGAUUAAUAUGAUAUCGUUCUUUCUUAUGUAUAUAUCUUCUUUCUCGAUAUCAUAUUAAUCUUU
B11: Id_ii_S2_P3E.2_K3.1_C3.2_[C-2T]_[T-1C]_H3.1_A3.1_F3.1_T3.2_[A10T] (ssRNA)
RNA: UUUGAUUAAUAUGAUAUCGUUCUUUCUUCUGUAUAUAUUUUCUUUCUCGAUAUCAUAUUAAUCUUU
B12: Id_ii_S2_P3E.2_K3.1_C3.2_[C-2T]_H3.1_A3.1_F3.1_T3.2_[T9C]_[A10G] (ssRNA)
RNA: UUUGAUUAAUAUGAUAUCGUUCUUUCUUUUGUAUAUACGUUCUUUCUCGAUAUCAUAUUAAUCUUU
B13: Id_ii_S2_P3E.2_K3.1_C3.2_[C-2A]_[T-1G]_H3.1_A3.1_F3.1_T3.2_[A10T] (ssRNA)
RNA: UUUGAUUAAUAUGAUAUCGUUCUUUCUAGUGUAUAUAUUUUCUUUCUCGAUAUCAUAUUAAUCUUU
B14: Id_ii_S2_P3E.2_K3.1_C3.2_[C-2T]_[T-1A]_H3.1_A3.1_F3.1_T3.2_[T9C]_[A10T] (ssRNA)
RNA: UUUGAUUAAUAUGAUAUCGUUCUUUCUUAUGUAUAUACUUUCUUUCUCGAUAUCAUAUUAAUCUUU
B15: Id_ii_S2_P3E.2_K3.1_C3.2_[C-2A]_[T-1C]_H3.1_A3.1_F3.1_T3.2_[T9G]_[A10C] (ssRNA)
RNA: UUUGAUUAAUAUGAUAUCGUUCUUUCUACUGUAUAUAGCUUCUUUCUCGAUAUCAUAUUAAUCUUU
B16: Id_ii_S2_P3E.2_K3.1_C3.2_[C-2T]_H3.1_A3.1_F3.1_T3.2_[T9G]_[A10T] (ssRNA)
RNA: UUUGAUUAAUAUGAUAUCGUUCUUUCUUUUGUAUAUAGUUUCUUUCUCGAUAUCAUAUUAAUCUUU
B17: Id_ii_S2_P3E.2_K3.1_C3.2_[C-2T]_[T-1A]_H3.1_A3.1_F3.1_T3.2_[T9A]_[A10C] (ssRNA)
RNA: UUUGAUUAAUAUGAUAUCGUUCUUUCUUAUGUAUAUAACUUCUUUCUCGAUAUCAUAUUAAUCUUU
B18: Id_ii_S2_P3E.2_K3.1_C3.2_[C-2T]_[T-1A]_H3.1_A3.1_F3.1_T3.2_[T9G]_[A10C] (ssRNA)
RNA: UUUGAUUAAUAUGAUAUCGUUCUUUCUUAUGUAUAUAGCUUCUUUCUCGAUAUCAUAUUAAUCUUU
B19: Id_ii_S2_P3E.2_K3.1_C3.2_[C-2T]_[T-1A]_H3.1_A3.1_F3.1_T3.2_[A10G] (ssRNA)
RNA: UUUGAUUAAUAUGAUAUCGUUCUUUCUUAUGUAUAUAUGUUCUUUCUCGAUAUCAUAUUAAUCUUU
B20: Id_ii_S2_P3E.2_K3.1_C3.2_[C-2A]_[T-1C]_H3.1_A3.1_F3.1_T3.2_[T9C]_[A10G] (ssRNA)
RNA: UUUGAUUAAUAUGAUAUCGUUCUUUCUACUGUAUAUACGUUCUUUCUCGAUAUCAUAUUAAUCUUU
B21: Id_ii_S2_P3E.2_K3.1_C3.2_[C-2T]_[T-1A]_H3.1_A3.1_F3.1_T3.2_[T9A] (ssRNA)
RNA: UUUGAUUAAUAUGAUAUCGUUCUUUCUUAUGUAUAUAAAUUCUUUCUCGAUAUCAUAUUAAUCUUU
B22: Id_ii_S2_P3E.2_K3.1_C3.2_[C-2T]_[T-1C]_H3.1_A3.1_F3.1_T3.2_[T9C]_[A10C] (ssRNA)
RNA: UUUGAUUAAUAUGAUAUCGUUCUUUCUUCUGUAUAUACCUUCUUUCUCGAUAUCAUAUUAAUCUUU
B23: Id_ii_S2_P3E.2_K3.1_C3.2_[C-2T]_[T-1G]_H3.1_A3.1_F3.1_T3.2_[T9C]_[A10C] (ssRNA)
RNA: UUUGAUUAAUAUGAUAUCGUUCUUUCUUGUGUAUAUACCUUCUUUCUCGAUAUCAUAUUAAUCUUU
B24: Id_ii_S2_P3E.2_K3.1_C3.2_[C-2T]_H3.1_A3.1_F3.1_T3.2 (ssRNA)
RNA: UUUGAUUAAUAUGAUAUCGUUCUUUCUUUUGUAUAUAUAUUCUUUCUCGAUAUCAUAUUAAUCUUU
B25: Id_ii_S2_P3E.2_K3.1_C3.2_[C-2A]_[T-1C]_H3.1_A3.1_F3.1_T3.2_[T9A] (ssRNA)
RNA: UUUGAUUAAUAUGAUAUCGUUCUUUCUACUGUAUAUAAAUUCUUUCUCGAUAUCAUAUUAAUCUUU
B26: Id_ii_S2_P3E.2_K3.1_C3.2_[C-2T]_[T-1A]_H3.1_A3.1_F3.1_T3.2_[T9G]_[A10T] (ssRNA)
RNA: UUUGAUUAAUAUGAUAUCGUUCUUUCUUAUGUAUAUAGUUUCUUUCUCGAUAUCAUAUUAAUCUUU
B27: Id_ii_S2_P3E.2_K3.1_C3.2_[C-2T]_[T-1A]_H3.1_A3.1_F3.1_T3.2_[T9A]_[A10T] (ssRNA)
RNA: UUUGAUUAAUAUGAUAUCGUUCUUUCUUAUGUAUAUAAUUUCUUUCUCGAUAUCAUAUUAAUCUUU
B28: Id_ii_S2_P3E.2_K3.1_C3.2_[C-2T]_H3.1_A3.1_F3.1_T3.2_[A10G] (ssRNA)
RNA: UUUGAUUAAUAUGAUAUCGUUCUUUCUUUUGUAUAUAUGUUCUUUCUCGAUAUCAUAUUAAUCUUU
B29: Id_ii_S2_P3E.2_K3.1_C3.2_[C-2T]_H3.1_A3.1_F3.1_T3.2_[A10T] (ssRNA)
RNA: UUUGAUUAAUAUGAUAUCGUUCUUUCUUUUGUAUAUAUUUUCUUUCUCGAUAUCAUAUUAAUCUUU
B30: Id_ii_S2_P3E.2_K3.1_C3.2_[C-2T]_H3.1_A3.1_F3.1_T3.2_[T9C]_[A10C] (ssRNA)
RNA: UUUGAUUAAUAUGAUAUCGUUCUUUCUUUUGUAUAUACCUUCUUUCUCGAUAUCAUAUUAAUCUUU
B31: Id_ii_S2_P3E.2_K3.1_C3.2_[C-2T]_[T-1G]_H3.1_A3.1_F3.1_T3.2_[A10T] (ssRNA)
RNA: UUUGAUUAAUAUGAUAUCGUUCUUUCUUGUGUAUAUAUUUUCUUUCUCGAUAUCAUAUUAAUCUUU
B32: Id_ii_S2_P3E.2_K3.1_C3.2_[C-2T]_H3.1_A3.1_F3.1_T3.2_[T9A]_[A10T] (ssRNA)
RNA: UUUGAUUAAUAUGAUAUCGUUCUUUCUUUUGUAUAUAAUUUCUUUCUCGAUAUCAUAUUAAUCUUU
B33: Id_ii_S2_P3E.2_K3.1_C3.2_[C-2T]_[T-1G]_H3.1_A3.1_F3.1_T3.2_[T9G]_[A10C] (ssRNA)
RNA: UUUGAUUAAUAUGAUAUCGUUCUUUCUUGUGUAUAUAGCUUCUUUCUCGAUAUCAUAUUAAUCUUU
B34: Id_ii_S2_P3E.2_K3.1_C3.2_[C-2A]_[T-1G]_H3.1_A3.1_F3.1_T3.2_[A10C] (ssRNA)
RNA: UUUGAUUAAUAUGAUAUCGUUCUUUCUAGUGUAUAUAUCUUCUUUCUCGAUAUCAUAUUAAUCUUU
B35: Id_ii_S2_P3E.2_K3.1_C3.2_[C-2A]_[T-1G]_H3.1_A3.1_F3.1_T3.2_[A10G] (ssRNA)
RNA: UUUGAUUAAUAUGAUAUCGUUCUUUCUAGUGUAUAUAUGUUCUUUCUCGAUAUCAUAUUAAUCUUU
B36: Id_ii_S2_P3E.2_K3.1_C3.2_[C-2T]_[T-1C]_H3.1_A3.1_F3.1_T3.2_[T9C]_[A10G] (ssRNA)
RNA: UUUGAUUAAUAUGAUAUCGUUCUUUCUUCUGUAUAUACGUUCUUUCUCGAUAUCAUAUUAAUCUUU
B37: Id_ii_S2_P3E.2_K3.1_C3.2_[C-2T]_[T-1C]_H3.1_A3.1_F3.1_T3.2_[T9C] (ssRNA)
RNA: UUUGAUUAAUAUGAUAUCGUUCUUUCUUCUGUAUAUACAUUCUUUCUCGAUAUCAUAUUAAUCUUU
B38: Id_ii_S2_P3E.2_K3.1_C3.2_[C-2T]_[T-1G]_H3.1_A3.1_F3.1_T3.2_[T9G]_[A10T] (ssRNA)
RNA: UUUGAUUAAUAUGAUAUCGUUCUUUCUUGUGUAUAUAGUUUCUUUCUCGAUAUCAUAUUAAUCUUU
B39: Id_ii_S2_P3E.2_K3.1_C3.2_[C-2T]_H3.1_A3.1_F3.1_T3.2_[T9A]_[A10C] (ssRNA)
RNA: UUUGAUUAAUAUGAUAUCGUUCUUUCUUUUGUAUAUAACUUCUUUCUCGAUAUCAUAUUAAUCUUU
B40: Id_ii_S2_P3E.2_K3.1_C3.2_[C-2T]_H3.1_A3.1_F3.1_T3.2_[A10C] (ssRNA)
RNA: UUUGAUUAAUAUGAUAUCGUUCUUUCUUUUGUAUAUAUCUUCUUUCUCGAUAUCAUAUUAAUCUUU
B41: Id_ii_S2_P3E.2_K3.1_C3.2_[C-2T]_[T-1A]_H3.1_A3.1_F3.1_T3.2_[A10T] (ssRNA)
RNA: UUUGAUUAAUAUGAUAUCGUUCUUUCUUAUGUAUAUAUUUUCUUUCUCGAUAUCAUAUUAAUCUUU
B42: Id_ii_S2_P3E.2_K3.1_C3.2_[C-2T]_[T-1G]_H3.1_A3.1_F3.1_T3.2_[A10C] (ssRNA)
RNA: UUUGAUUAAUAUGAUAUCGUUCUUUCUUGUGUAUAUAUCUUCUUUCUCGAUAUCAUAUUAAUCUUU
B43: Ib_S1_P5E.1_K5.1_C5.1_H5.1_[T1C]_A5.1_F5.1_[T8G]_T5.1 (ssRNA)
RNA: UCUCUUCGUAUUAGUAUCUCUU

Biological target: T1, PUF4 RNA-binding domain (Saccharomyces cerevisiae, UniProt P25339 537-888)
T1 sequence: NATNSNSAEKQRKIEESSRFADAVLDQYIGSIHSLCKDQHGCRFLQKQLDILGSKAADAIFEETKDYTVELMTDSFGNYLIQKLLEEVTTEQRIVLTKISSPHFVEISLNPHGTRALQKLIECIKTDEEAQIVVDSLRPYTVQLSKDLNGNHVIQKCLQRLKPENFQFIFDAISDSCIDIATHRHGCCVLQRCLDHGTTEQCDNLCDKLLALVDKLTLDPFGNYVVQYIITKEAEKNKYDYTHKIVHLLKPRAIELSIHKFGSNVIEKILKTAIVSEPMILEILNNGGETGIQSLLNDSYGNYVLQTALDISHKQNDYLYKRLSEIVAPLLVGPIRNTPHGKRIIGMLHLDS
Assay: Mg; RNA-MaP; 20 mM Na-HEPES pH 7.4, 30 mM KOAc, 0.75 mM MgCl2, 0.1% Tween-20, 5% glycerol, 0.1 mg/mL BSA, 2 mM DTT; 25 C; 0.0125-409.6 nM protein
Settings: tags: N-His6-TEV cleaved; C-SNAP kept, Cy3B-labelled; label: tethered on chip by stalled RNA polymerase

Binder | Kd [nM]
B1 | 728
B2 | > 2300
B3 | 2.37
B4 | > 2300
B5 | 2.02
B6 | 4.12
B7 | 10.2
B8 | 6.87
B9 | 4.94
B10 | 6.09
B11 | 1.17
B12 | 3.7
B13 | 4.88
B14 | 5.43
B15 | 7.15
B16 | 2.77
B17 | 16.3
B18 | 5.76
B19 | 31.5
B20 | 49.4
B21 | 16.9
B22 | 3.42

Binder | Kd [nM]
B23 | 26.5
B24 | 1.24
B25 | 3.66
B26 | 7.14
B27 | 14.1
B28 | 2.61
B29 | 1.56
B30 | 2.82
B31 | 1.33
B32 | 4.47
B33 | 6.53
B34 | 38.5
B35 | 5.7
B36 | 7.76
B37 | 7.13
B38 | 3.09
B39 | 4.14
B40 | 1.55
B41 | 3.9
B42 | 3.49
B43 | > 2300
